Patent publication US20070054851A1

How the values were obtained:
[1] = target: ErbB1 receptor (EGF receptor) on HeLa 229 cells (UniProt P00533); assay: cell-based or functional assay
ErbB1 receptor = ErbB1 receptor (UniProt P00533); assay: cell-based or functional assay

Sequence of PEGylated betacellulin produced using the mPEG-SMB-20K reagent (P35070 other isoform, or with tags, fused parts or gaps limits assumed): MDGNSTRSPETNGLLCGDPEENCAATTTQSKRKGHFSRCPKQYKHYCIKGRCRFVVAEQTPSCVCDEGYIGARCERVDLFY
Sequence of PEGylated betacellulin produced using the mPEG-ButyrALD-20K reagent (P35070 other isoform, or with tags, fused parts or gaps limits assumed): as above
Sequence of UniProt P35070 (P35070 other isoform, or with tags, fused parts or gaps limits assumed): as above

Row | activity % (phospho-EGFR pY1068 ELISA, HeLa cells; SEC column S70; 40 nM submitted to assay) [1] [%] | activity % (phospho-EGFR pY1068 ELISA, HeLa cells; SEC column S200; 40 nM submitted to assay) [1] [%] | activity in phospho-EGFR pY1068 ELISA on HeLa 229 cells, against unreacted betacellulin (ErbB1 receptor; scale: % reduction against unreacted betacellulin) | ELISA activity is equivalent to [BTC] nM (phospho-EGFR pY1068 ELISA, HeLa cells; SEC column S200; 40 nM submitted to assay) [1] [nM] | activity in phospho-EGFR pY1068 ELISA on HeLa 229 cells, against unreacted betacellulin (fold lower than unreacted betacellulin) (ErbB1 receptor) | ELISA activity is equivalent to [BTC] nM (phospho-EGFR pY1068 ELISA, HeLa cells; SEC column S70; 40 nM submitted to assay) [1] [nM] | Substance
1 | 58 | 55 | < 50 |  |  |  | PEGylated betacellulin produced using the mPEG-ButyrALD-20K reagent (from UniProt P35070 32-111) (ligand)
2 | 26 | 34 |  | 14 | 3 |  | PEGylated betacellulin produced using the mPEG-SMB-20K reagent (from UniProt P35070 32-111) (ligand)
3 | 0 |  |  |  |  | 0 | Unreacted (row label under 'PEGylation chemistry'; taken as the unreacted betacellulin fraction from the S70 size exclusion column) (from UniProt P35070 32-111) (ligand)
